Consider 68 sequences from the domain aggregation screens of Martell et al. (2025).

The series in a line: soluble fraction after stress (log2 fold change); higher = more stays soluble; pooled small domains, quantitative proteomics. The settings on record: stress: 50 degC. In a few lines: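 Each library was heated to 50°C as a stress step. The libraries, made up of small protein domains, were pooled and analysed at high throughput by quantitative proteomics. The reported value is the base-two logarithm of the fold change in each protein's soluble amount after stress, taken as a measure of aggregation propensity. The higher the value, the more protein stays in solution.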
Regarding “HMQPQIDFEIDVEVRASSLRIVAAPNSDVLVATVGRGEHVVQLTYPKDGWVMIRTADDRVGFVPESLLL”, the “soluble fraction (log2)” value is -0.255.

For “HMRGFGYVRRLPSKRYQASYAGPDLQRHVAPTTFTTKADAESWLGAERKVVESGSWRPPAVREAEARLS”, the “soluble fraction (log2)” value was determined as 0.357. The figure for “HMSNATELVYDDGRKLLISYETLVGGYHPDLGWIRTAKTYSISTDKHIRNYFNNVTNPRVVGEDILETLKI” is 0.0667; for “HMVMSTDAELILEYLAKHQGEMEITDKSSPELIMDTFNMSKGAFKRALGSLYKSKTVVIESTKVLLNT” it is -1.44; for “HMGKKGPELNDNEKIIFNIISKENSMNLDDLKNRTELSNKQWDKAIKGLRSHELVNIEKIDDQLLIHL” it is 0.196. The figure for “HMQKDYKTRLQEYYAKVGKKVNYMDSSTGPDHDKKFQTQVFLDKEIIGVGEGKSKKSSQQEAAKQALEKI” is 0.338.

With “HMKQQNFADLAGRFVFNADNEVVFNFGKHKNVPVATVLKNEPGYYGWMMGGDFPLFTKKILKQIKEA”, the “soluble fraction (log2)” value is -0.847. The figure for “HMFRPRIEPGAKGSYVLEVQKRLAKLGYEHAGFDGVYGPGTERAIMQLQRDKGLPVTGIVDMRTYEALGLF” is -0.46.

For the sequence “HMQRYFINEPVPEDQRLVLPKDIAHHLVDVLRAEQNDELEVALNDQKVYLARLISLNPATVELQSDLG”, the “soluble fraction (log2)” value is 0.266.

For the sequence “HMPTPLTPREHEIANLIAQGLSNREIADELVISPATAARHVANILAKLGFSSRTQVASWATRHD”, the “soluble fraction (log2)” value was -0.179.

Turning to “HMKELLDRIFLHETMRRVSQDATITFSKKVYEVPQKFIGRQVTVQYDPEDLSRVYVKDLNFPEPVMVYPVQ”, the “soluble fraction (log2)” value was -0.843.

For the sequence “HMQPASPELNNQEKKVLQALPENEVIHIDELSDKIQIPVGELLTVLLSLEMKETVIQEPGKFFRRR”, the “soluble fraction (log2)” value is -1.28.

Turning to “HMNNTIKFSVDSQNSGKRLDIFLTENIKNYTRSFLKKLIENRQVKLNNNFIISPSERVKFKDQININILQ”, the “soluble fraction (log2)” value is -1.17.

“HMGISSESIKTFIREIVENEDPKAPLSDQTMVELLAERGIDISRRTVAKYRDEMNLPSSSKRKR”: the “soluble fraction (log2)” value was 0.462.

“HMTKNIIVTTSVKTSDELVEVAKNHALNLELDFNYRNKKTIKELLSSFDGLVVIYKNKISYFEDNSELF”: the “soluble fraction (log2)” value amounted to 0.0798.

Turning to “HMPTELVYTVPASAEGLRLDHFLVQHVPHMTRALATELTGAGGVRVNGRRAKKGDRLPSGAEVRLER”, the “soluble fraction (log2)” value was found to be 0.178. For the sequence “HMQLHDTMKRVYEALDISEQKLAESLGLKLSTIINWQKNGISKIGINKLNQTFGLDMQWILTGQGEPFI”, the “soluble fraction (log2)” value was 0.116. With “HMSTVIENVFKNFEVYEIKKGDTFYNIEKRFGVNRQELLVLNPELKEGLKLGMVLKIKEIIP”, the “soluble fraction (log2)” value was -1.07.

For the sequence “HMTDSISLTLNGDPRPFRAGATVADLVRDIGLDPAKVAVERNLEIVPRSTLENVHLADGDVLEIVHFV”, the “soluble fraction (log2)” value was determined as 0.0403. The figure for “HMNPEDDLLKAIIMKYFSNAQVQVDKNVIEYLLKRVDRDYQNLYNILEKINILSLQRKSKITTHLIRDIM” is -0.432; for “HMGRSARVQQAVHQAVRALLEENDGERSALSVPLVAERAGVNSSTIYRRWGDLPRLLAAVASN” it is -0.481; for “HMLSSAAAIDRILAGGTAAMNHRQFDAALTSFNTVIEMRPDFAEGWNKRATLYYLIGEYERSIADVERTLA” it is 0.1. With “HMSDESALIAAIEKAIAAQPETAEKVRNGHLPAAGALIGSVMKETKGQADAARVRELLLGLLGQ”, the “soluble fraction (log2)” value is 0.139. Next, “HMTNEPRLTNMGFNKMLIENYKMILEYQDFFIRISTQIGIININGFDLKLGEMTADEVLVTGKIESIDL”: 0.53; “HMDTHDVQVPQEGQGLRLDLFLTDHIEGSRSFIQTIIKDGHVILNGKKAKANSRLNEGDYVVWSIPKPE”: -0.0683. Next, “HMEFQVKVIVSSLNIRSGPGTSYDTLGTVTKGDIFTIVETNSDSTWGKMQSGGWISIKDAYVKK”: -0.688; “HMVAESGLPPAFRSTWRHIMQTRGAQLDVLAMRTGTDAASLQKQLHAMELGGWVRRMPGGWYVPLK”: -0.736; “HMGALAITPDFVGQTREEAERFLRDLDLSFDIGGKGDRILRQEPVAGQRMNLDQPMKLWVGSMNA”: 0.0609. The figure for “HMHYNMNYLENLTKTELFDLAKNKFGLTYAEMERHLSIPEGGARYAIKAEHSKYGSDIKKYLVEFLLE” is -1.18; for “HMIENGILELKGKTGVAQTVLRPSGKVLIDDEIYDAVALTGYIEKADKVLVTKVEATQLYVEK” it is 0.0576; for “HMESGSSKINQDILETFTRGKKSLSISDISRLSGHHRHTVARYLDNLVSSGKLEMRQHGQKKKYYLSDIQP” it is 0.0308. For “HMQDTYLYPVQHNGKVRLQVELPAKGLPEDLVRLALAHPKVVEWLNGRIPTKTIAVPGRIINMVLPNQ”, the “soluble fraction (log2)” value was -0.134. “HMPEDQISYTDLIKQINDGNVEKIKMTVGSTTIKVNLKEQEEPKTAIVPSTQAFIELVQEKVQDGNEITLI”: the “soluble fraction (log2)” value worked out at 0.119.

As for “HMGAIVTVPDLAGRPQPGAEAELRRSGLVPKVRTSYSLTGTRGTVISQTPPAGSRVREGAEVEVVVSRGLN”, the “soluble fraction (log2)” value was determined as 0.0922. As to “HMLLTEETLPQLKQIVDEFPYFQIARMLYLKNLAVLNDIRFSVELKKMSIYVPDRRKLFTLIEGE”, the “soluble fraction (log2)” value was determined as 0.00426. Next, “HMSPILTPDQATKAYGKDGVLYIHSNKERTIYIYDVTGRTVRILEAVEGENQINGLEKGIYFLEGQKVAV”: -0.233; “HMPSPFYIMDEVEAALDDTNLGRLITLFEELRDSSQLIVITHQKKTMEIADALYGVTMRGDGITTVVSQRL”: -0.343; “HMATQTGTVKWFNEGKGFGFIAPDDGSKDLFAHFSEIKTTGFKTLAEAQRVEFEVTEGRKGLQASNIK”: 0.0521.

On to “HMQDVWEPFLAKGYVFADGMLTKLIHKRGDVYKTQEIGSDKIIYVIKDGDTFAHGKTVKAAMLDLAFKKS”, for which the “soluble fraction (log2)” value is -1.29.

Take “HMAAPPPLSDYRNMQEAEHIRNILLQHHGNVRRAAAALELSRPYLYQKMKQLGINIAELRELSLSHSS”: the “soluble fraction (log2)” value is -0.559.

Take “HMLGFELVGIRGNNPESTIIILERDDYRLVEQGQNINSSVIFSHIDGSRAYFFDGQTYTFLDI”: the “soluble fraction (log2)” value is -2.95. The figure for “HMTGIVVVDVVGQVGRPGLVSLPAGSRVADAITAAGGATPEADVSLLNQARLVIDGEQIRVPRPGEVIAA” is -0.0367; for “HMGERVDGVVKFFNGQKGFGFIQREDGGPDAFVHISAVERAGMAGLDEGQRVSFELELDRRGKQAAINLTP” it is 0.00122. In the case of “HMKHKHHIIPKHKGGTDHPDNLIELTVEQHAKAHWVEFMLDGREEDYWAWKGLEGVASKKDIIYALSKR”, the “soluble fraction (log2)” value amounted to 0.351. Consider “HMDRMFQPETWSKIYQWVMNDPQVPDKEDVLALIRRHFGNFEKLIKLLHYLDGGKPYAYLSEH”, for which the “soluble fraction (log2)” value was -0.115. The figure for “HMLEQISDINILSGYAKEVIAENPKTVSDYLSGKAAAFQALVGQVMKKTGGRGNPVIIQEILKRLIHKK” is 0.116; for “HMEEDPVIAAQRFLNIFRQLHIFTAAKRKEFDELLLKQPASVKGMFASLPGGSVLQEYVNNLEQNAG” it is -0.137. The figure for “HMTTTAGTAVVQTGNSGKLNLREQAYSNAGILGRYSNGTIVTVLQKGSAWSYVEVQGQKGYMMSKFLRFT” is 0.293. The figure for “HMHDYNTIVGVIEMRDKNIPLTSIRQRYGIGYSGIDLILTRYKDSGLTLKEFLALDPSQAEELIYPPK” is -0.622; for “HMQSREISYSDFVASVERGEVATVILDGENIRFKGGDNVEYVTVRPADTNVTDLLIENQVVVRAEK” it is 0.155. For the sequence “HMDENTEQESQTVVVPDVTGKSLSEAASILREAGLDYLAEQTGTVVTKQMPLPDAEVLINTTVLLYTDSE”, the “soluble fraction (log2)” value is 0.0118. In the case of “HMATFTPYLVRITASVLNIRKGPGTTYAVTGQIKDRGVYTIVEQKGNWGRLKSGAGWISLSYTKK”, the “soluble fraction (log2)” value is -3.12. Next, “HMTLPEKSKRLFSQDDFWDQIFYRIGEGQSLREVSKYYKIPYTTIHDRIHSDEGIKLKYLEALTS”: -0.71; “HMSSIVLTARSGRAALAYRVKSIGVDLSKDQLDLVYKTFLGFADKKKEIIDTDIPQILKASGI”: -1.92. Next, “HMGMGDALRILFNQAMLIEREQYLQAGAYERNENPVNYANGFKAKTLNTRVGALEVAVPQTRDSAFYPSFL”: -0.114. With “HMGEAIPVPDIRHKSQADAERLLQDQGLAMMVTDTGYVKTLPANYILEQIPVAGEKVKSGHVVYVIINSG”, the “soluble fraction (log2)” value was 0.0717. Next, “HMGKPTPASQVATRWLAGDLPETLPVAGPAPSFETLARSVSTDFHPRAVLQELLRLGVAEEADGRVRLLK”: 0.00959; “HMVELRDGSLPLARGSVGDLVAEVQRKLGVAADGIFGPQTERAVRAFQARAGLASDGIVGPLTWSALFGA”: -0.282; “HMEVPVQYIKFKIPENHFWAKKKVADIILPPETLLVLLQRGSDKMIPDGETVLLPEDTLVLIAKAPG”: -0.0836.

As to “HMDTNVPVPNVNGMTLNQAKAALEAAGFHVAVNWLGEKSDNNSVISYEPNGSAAKGTTITITVIAQPEQDG”, the “soluble fraction (log2)” value was 0.0386.

For the sequence “HMSADISIGYNIPKGSVTVSAGGRTLQEGIDYDINYDLGTIKITNQAILNAGLPVQVNFENNAS”, the “soluble fraction (log2)” value turned out to be 0.149.

On to “HMARRSRADAVRNREALIDAAKAAFTEAGPDVSLEEIARRAGVGIGTLYRHFPTRDAVIEAVYR”, for which the “soluble fraction (log2)” value came to 0.0559.

As for “HMGTWKKIGTMTATVNDLYVRETPNGYIMGFINKGTVVEVDGKTTGKWTHAKVEGIGVGWIWTGYLDK”, the “soluble fraction (log2)” value is -3.47. For “HMTGIQLNDRERAILQHLSDGLTTKAIAERIFLREDTVKWYRKNLLARFEQPIVAALVKWAVLEGLV”, the “soluble fraction (log2)” value turned out to be 0.141. Turning to “HMLSRNEWLVMEALWERPSTLMELVRQLGQEPPGWAKSTTATMVRRMEEKGLIRHEAGSKARVYHP”, the “soluble fraction (log2)” value is -0.885. Turning to “HMREISSDELHSLFSADQRGDLVINETTRLSIEKLYALHTPEEREAKVNELSGVLPSEAHRQLVHFLDYFD”, the “soluble fraction (log2)” value was -1.26. The figure for “HMTKQDYLTALQQELNKNAVADAEDIVSEYEQHFQFKLADGFTEEEIAAKLGAPAQIALQFAG” is 0.167; for “HMRPPLRAAIIDHLARDWHTVAELARLLPASGAHVSRLVVELRAVGAVDERISHPDWPGNRPTEYRLRRA” it is -3.58.
